Test results reported in PMC6026317, “Molecular elements in FGF19 and FGF21 defining KLB/FGFR activity and specificity” (Molecular Metabolism, 2018).
Substitutions are numbered along the chain they refer to. Numbers in names are those of the source. Entries after “also recorded” stand apart in the source; their conditions may differ.

B1: FGF21-19A: Hybrid protein: FGF21 1–156 fused with FGF19 169–194 (K194A) (protein)
chain: HPIPDSSPLLQFGGQVRQRYLYTDDAQQTEAHLEIREDGTVGGAADQSPESLLQLKALKPGVIQILGVKTSRFLCQRPDGALYGSLHFDPEACSFRELLLEDGYNVYQSEAHGLPLHLPGNKSPHRDPAPRGPARFLPLPGLPPALPEPPGILAPQPLETDSMDPFGLVTGLEAVRSPSFEA
modifications: left off: SUMO (yeast), end not stated, cleaved | His6, end not stated, state not stated
B2: FGF23: FGF23 (#Q9GZV9: 25–251) (protein, UniProt Q9GZV9 25-251, looked up)
Fibroblast growth factor 23: YPNASPLLGSSWGGLIHLYTATARNSYHLQIHKNGHVDGAPHQTIYSALMIRSEDAGFVVITGVMSRRYLCMDFRGNIFGSHYFDPENCRFQHQTLENGYDVYHSPQYHFLVSLGRAKRAFLPGMNPPPYSQFLSRRNEIPLIHFNTPIPRRHTRSAEDDSERDPLNVLKPRARMTPAPASCSQELPSAEDNSPMASDPLGVVRGGRVNTHAGGTGPEGCRPFAKFI
B3: FGF21,A^164: Native FGF21 with D164A substitution (protein, UniProt Q9NSA1 29-209, looked up, variant D164A)
Fibroblast growth factor 21: HPIPDSSPLLQFGGQVRQRYLYTDDAQQTEAHLEIREDGTVGGAADQSPESLLQLKALKPGVIQILGVKTSRFLCQRPDGALYGSLHFDPEACSFRELLLEDGYNVYQSEAHGLPLHLPGNKSPHRDPAPRGPARFLPLPGLPPALPEPPGILAPQPPDVGSSAPLSMVGPSQGRSPSYAS
B4: FGF21: Human FGF21 (UniProtKB #Q9NSA1 29–209, designated 1–181) (protein)
chain: B3 Fibroblast growth factor 21 with A164D
modifications: left off: SUMO (yeast), end not stated, cleaved | His6, end not stated, state not stated

What was measured:
Hep3B cells = test: Agonist pERK AlphaLISA assay in Hep3B cells; assay type: cell-based, human; details: 10 min at 37° C, n = 3
Experimental: (§1) 293T HEK cells expressing KLB (or KL) or Hep3B cells were plated to 5–6 x 10^4 cells/well density in 96-well cell culture plate coated with poly-D-Lysine (Corning). The cells were serum starved for four hours in 0.1% BSA fraction V (ThermoFisher) containing media prior to treatment with protein and/or an antagonist peptide at the mentioned concentrations for 10 min at 37° C. For the antagonist assays, a chosen fixed dose within the range of 0.8–30 nM (depending on the cell type) of FGF21 or FGF19 stimulant was added to all the wells. BaF3 cells expressing human KLB/FGFR1c or human KLB/FGFR4-1c chimera were seeded at 5 × 10^5 cells/well density in 96-well cell culture plate and serum-starved overnight. FGF21/19 analogs were diluted in 0.02% Tween-20 containing RPMI1640 medium and the cells were treated for 15 min at 37° C. […] Phosphorylated ERK1/2 (pERK) levels were subsequently recorded by EnSpire Alpha or Envision Multilabel plate reader (Perkin Elmer). […]
(§2) All cellular phosphorylation data were analyzed using 3-parameter non-linear regression curve in GraphPad Prism 7. […] Each peptide and protein analog was tested in triplicates in three independent experiments (n = 3), and normalized graphs plotted are expressed as mean ± SD unless otherwise noted.

[1] = test system: diet-induced obese (DIO) mice; test: In vivo FGF21 agonism study in DIO mice; set-up: species or system mouse; details: for Body weight change: daily sc 0.1, 0.3 or 1 mg/kg for 7 days, n = 8
Text: (§3) All animal studies were approved by and performed according to the guidelines of the Institutional Animal Care and Use Committee of the University of Cincinnati (Cincinnati, USA). Eight-week old male C57BL/6J mice (Jackson Laboratories) were given ad libitum access to either a chow diet (lean mice), or a high-fat high-sugar diet (HFD, DIO mice) containing 58% kcal from fat (Research Diets, catalog# D12331). For DIO mice, animals were maintained on the HFD for a minimum of 3 months prior to initiation of the pharmacological studies. The mice were maintained at 22 °C on a 12-h light–dark cycle with free access to water. Before the beginning of the studies, mice were randomized into treatment groups according to body weight. All injections and tests were performed during the light cycle with a group size of n = 8.
Mice were administered vehicle, FGF21 or FGF21-19A (0.1, 0.3 and 1 mg/kg) daily via sc injections and their body weight measurements were made on alternative days. At the end of 7 day treatment, blood was collected from tail veins using EDTA-coated microvette tubes (Sarstedt), immediately placed on ice, centrifuged at 5000 × g and 4 °C for 10 min, and plasma was stored at −80 °C until analyzed. Triglycerides and cholesterol levels were analyzed using colorimetric assay (Thermo Fisher).
Statistical analyses for in vivo experiments were performed on data using a one- (Figure 5A,B and 5D) or two-way (Figure 5C) ANOVA followed by Tukey post hoc multiple comparison analysis. All results are presented as mean ± SEM, n = 5–8, and P < 0.05 was considered significant. Group size estimations were based upon a power calculation to minimally yield an 80% chance to detect a significant difference in body weight of P < 0.05.

293/KLB cells = test: Agonist pERK AlphaLISA assay in 293/KLB cells; assay type: cell-based, human; details: 10 min at 37° C, n = 3
Experimental: 293T HEK cells expressing KLB (or KL) or Hep3B cells were plated to 5–6 x 10^4 cells/well density in 96-well cell culture plate coated with poly-D-Lysine (Corning). The cells were serum starved for four hours in 0.1% BSA fraction V (ThermoFisher) containing media prior to treatment with protein and/or an antagonist peptide at the mentioned concentrations for 10 min at 37° C. For the antagonist assays, a chosen fixed dose within the range of 0.8–30 nM (depending on the cell type) of FGF21 or FGF19 stimulant was added to all the wells. BaF3 cells expressing human KLB/FGFR1c or human KLB/FGFR4-1c chimera were seeded at 5 × 10^5 cells/well density in 96-well cell culture plate and serum-starved overnight. FGF21/19 analogs were diluted in 0.02% Tween-20 containing RPMI1640 medium and the cells were treated for 15 min at 37° C. Following the respective cell treatments, the cells were lysed (with lysis buffer provided in the kit) for 10 min at room temperature on a shaker and the lysate was mixed with reaction mixture (consisting of reaction buffer, activation buffer, acceptor and donor beads provided in the kit). Phosphorylated ERK1/2 (pERK) levels were subsequently recorded by EnSpire Alpha or Envision Multilabel plate reader (Perkin Elmer). The cell assays corresponding to 293/KLB or Hep3B cells were carried out with AlphaLISA SureFire Ultra pERK1/2 (Thr 202/Tyr204) kit (Perkin Elmer), and BaF3 cells were done using AlphaScreen pERK1/2 (Thr202/Tyr204) kit (Perkin Elmer).
as §2, with “7. Graphs are represented as relative maximal (100%) response of the positive control. All other test analog signals were adjusted accordingly as % values.” for “7.”

293/KL cells = test: Agonist pERK assay in 293/KL cells; assay type: cell-based, human; details: n = 3
Experimental: as §1, §2

[2] = test system: human FGFR4-1c chimera/KLB; test: Agonist pERK AlphaScreen assay in BaF3 cells, FGFR4-1c chimera/KLB; assay type: cell-based; details: BaF3 cells co-expressing KLB and FGFR4-1c chimera; 15 min at 37° C; n = 3
Text: (§4) For generating receptor specific BaF3 cell line, human FGFR1c cDNA was cloned into pMXs-IRES-Puro vector (Cell Biolabs) to generate the expression plasmid pMX-FGFR1c-IRES-Puro. Human FGFR4 sequence was re-engineered to enhance signaling by constructing chimeric cDNA encoding the extracellular region of FGFR4 fused to the intracellular region and tyrosine kinase domain of FGFR1c, and the chimeric sequence was cloned into pMX-IRES-Puro vector to generate the expression plasmid pMX-chimeric FGFR4-1c-IRES-Puro. Human KLB cDNA was cloned into pMXs-IRES-Neo vector (Cell Biolabs) to generate expression plasmid pMX-KLB-IRES-Neo. BaF3 cells were transfected with pMX-FGFR1c-IRES-Puro and pMX- FGFR4-1c chimera-IRES-Puro expression plasmids respectively by electroporation (Xcell machine, Bio-Rad, 950 μF, 370V). Cells were selected with media containing 1 μg/ml Puromycin for 10–12 days. […]
(§5) 293T HEK cells expressing KLB (or KL) or Hep3B cells were plated to 5–6 x 10^4 cells/well density in 96-well cell culture plate coated with poly-D-Lysine (Corning). […] Phosphorylated ERK1/2 (pERK) levels were subsequently recorded by EnSpire Alpha or Envision Multilabel plate reader (Perkin Elmer). […]
(§6) All cellular phosphorylation data were analyzed using 3-parameter non-linear regression curve in GraphPad Prism 7. […]

human FGFR1/KLB = test: Agonist pERK AlphaScreen assay in BaF3 cells, FGFR1/KLB; assay type: cell-based; details: BaF3 cells co-expressing KLB and FGFR1; 15 min at 37° C; n = 3
Text: as §4, §5, §6

lean (C57BL/6J) mice = test: In vivo peptide antagonism study, cFos and EGR1 mRNA in pancreas and eWAT; set-up: species or system mouse; details: 1 mg/kg sc, one hour, WAT and pancreas
Text: as §3
Mice were administered vehicle, FGF21 (1 mg/kg), or FGF19 (1 mg/kg) alone or in combination with 19C26,A^26 (30 mg/kg), (dosed 15 min prior to FGF21 or FGF19 administration) via sc injections. One-hour post FGF21 or FGF19 dosing, the mice were sacrificed and their plasma, pancreas, and epididymal white adipose tissue (eWAT) were harvested for analyses. […] Following reverse transcription, levels of cFos and early growth response-1 (EGR1) mRNA levels were subsequently probed by quantitative PCR (ThermoFisher) and analyzed by ΔΔCT method. […]

[3] = daily sc 0.1, 0.3 or 1 mg/kg, day 7

| Molecule | pERK agonist activity, in words (Hep3B cells) | Body weight change [1] | Circulating insulin [1, 3] | Fasted plasma glucose, difference to native FGF21 [1, 3] | Plasma cholesterol ([1]; daily sc 0.1, 0.3 or 1 mg/kg, end of 7 day treatment) | pERK agonist activity, in words (293/KLB cells) | pERK agonist activity, in words (293/KL cells) | pERK agonist activity, in words [2] | pERK agonist activity, in words (human FGFR1/KLB) | cFos and EGR1 transcriptional activity, FGF alone (lean (C57BL/6J) mice) |
| --- | --- | --- | --- | --- | --- | --- | --- | --- | --- | --- |
| B1 | significantly more potent when compared to native FGF21; also recorded: ten-fold-enhanced in vitro potency | dramatically more potent at each corresponding dose | potently reduced circulating insulin when compared to vehicle treatment | statistically different only at the 0.3 mg/kg dose | plasma cholesterol was lowered | significantly more potent when compared to native FGF21; also recorded: ten-fold-enhanced in vitro potency | – | – | – | – |
| B2 | – | – | – | – | – | – | significantly more potent than FGF21 | – | – | – |
| B3 | – | – | – | – | – | only negligible activity | – | – | – | – |
| B4 | – | induced weight loss in a dose-dependent manner | potently reduced circulating insulin when compared to vehicle treatment | – | – | nanomolar potencies | – | minimal signaling | active | induced robust transcriptional activity in each tissue |
